Assays:
Human Factor XIa (human) [1] = target: Human Factor XIa (human) (UniProt P03951); assay: inhibition of FXIa, chromogenic substrate, fit for tight-binding inhibitors (apparent Ki*)
[2] = target: Human plasma kallikrein (human) (UniProt P03952)
Human Factor XIa (human) [3] = target: Human Factor XIa (human) (UniProt P03951)
[4] = target: tissue factor-Factor VIIa (human) (UniProt P13726)
[5] = target: Human plasma kallikrein (human) (UniProt P03952); assay: inhibition of human plasma kallikrein, substrate S2302, fit for tight-binding inhibitors (apparent Ki*)
Human Factor XIa (human) [6] = target: Human Factor XIa (human) (UniProt P03951); remark: listed apart in the source

APPI (Alzheimer's amyloid β-protein precursor inhibitor)
Ki (Human Factor XIa (human) [1]): 2.7 nM
fraction of remaining proteolytic activity with 100 nM inhibitor (fraction of uninhibited rate) [2]: 0.81
fraction of remaining proteolytic activity with 100 nM inhibitor (fraction of uninhibited rate) (Human Factor XIa (human) [3]): 0.03
fraction of remaining proteolytic activity with 100 nM inhibitor (fraction of uninhibited rate) [4]: 0.6
Ki [5]: 340 nM
fold prolongation of the clotting time of normal human plasma, APTT assay (Human Factor XIa (human) [6]): 2.8 fold

From patent US5786328
